We go through 11 molecules from article doi:10.1101/2022.08.17.504273 (bioRxiv, 2022).

B1: LIS1-N (residues 1-90) (domain or fragment)
chain: MVLSQRQRDELNRAIADYLRSNGYEEAYSVFKKEAELDVNEELDKKYAGLLEKKWTSVIRLQKKVMELESKLNEAKEEFTSGGPLGQKRD
B2: LIS1 (full length human) (natural protein)
chain: MVLSQRQRDELNRAIADYLRSNGYEEAYSVFKKEAELDVNEELDKKYAGLLEKKWTSVIRLQKKVMELESKLNEAKEEFTSGGPLGQKRDPKEWIPRPPEKYALSGHRSPVTRVIFHPVFSVMVSASEDATIKVWDYETGDFERTLKGHTDSVQDISFDHSGKLLASCSADMTIKLWDFQGFECIRTMHGHDHNVSSVAIMPNGDHIVSASRDKTIKMWEVQTGYCVKTFTGHREWVRMVRPNQDGTLIASCSNDQTVRVWVVATKECKAELREHEHVVECISWAPESSYSSISEATGSETKKSGKPGPFLLSGSRDKTIKMWDVSTGMCLMTLVGHDNWVRGVLFHSGGKFILSCADDKTLRVWDYKNKRCMKTLNAHEHFVTSLDFHKTAPYVVTGSVDQTVKVWECR
B3: LIS1^mut (natural protein)
chain: MVASQEARDELNRAIADYLRSNGYEEAYSVFKKEAELDVNEELDKEYAGLLEEEWAAVAELAEEVMELRSKLNEAKEEFTSGGPLGQKRDPKEWIPRPPEKYALSGHRSPVTRVIFHPVFSVMVSASEDATIKVWDYETGDFERTLKGHTDSVQDISFDHSGKLLASCSADMTIKLWDFQGFECIRTMHGHDHNVSSVAIMPNGDHIVSASRDKTIKMWEVQTGYCVKTFTGHREWVRMVRPNQDGTLIASCSNDQTVRVWVVATKECKAELREHEHVVECISWAPESSYSSISEATGSETKKSGKPGPFLLSGSRDKTIKMWDVSTGMCLMTLVGHDNWVRGVLFHSGGKFILSCADDKTLRVWDYKNKRCMKTLNAHEHFVTSLDFHKTAPYVVTGSVDQTVKVWECR
B4: human Arf6 (12-175_Q67L) (domain or fragment)
chain: KEMRILMLGLDAAGKTTILYKLKLGQSVTTIPTVGFNVETVTYKNVKFNVWDVGGLDKIRPLWRHYYTGTQGLIFVVDCADRDRIDEARQELHRIINDREMRDAIILIFANKQDLPDAMKPHEIQEKLGLTRIRDRNWYVQPSCATSGDGLYEGLTWLTSNYKS
B5: JIP3^1–560 (domain or fragment)
chain: MMEIQMDEGGGVVVYQDDYCSGSVMSERVSGLAGSIYREFERLIHCYDEEVVKELMPLVVNVLENLDSVLSENQEHEVELELLREDNEQLLTQYEREKALRRQAEEKFIEFEDALEQEKKELQIQVEHYEFQTRQLELKAKNYADQISRLEERESEMKKEYNALHQRHTEMIQTYVEHIERSKMQQVGGNSQTESSLPGRRKERPTSLNVFPLADGTVRAQIGGKLVPAGDHWHLSDLGQLQSSSSYQCPQDEMSESGQSSAAATPSTTGTKSNTPTSSVPSAAVTPLNESLQPLGDYGVGSKNSKRAREKRDSRNMEVQVTQEMRNVSIGMGSSDEWSDVQDIIDSTPELDMCPETRLDRTGSSPTQGIVNKAFGINTDSLYHELSTAGSEVIGDVDEGADLLGEFSVRDDFFGMGKEVGNLLLENSQLLETKNALNVVKNDLIAKVDQLSGEQEVLRGELEAAKQAKVKLENRIKELEEELKRVKSEAIIARREPKEEAEDVSSYLCTESDKIPMAQRRRFTRVEMARVLMERNQYKERLMELQEAVRWTEMIRASRE
B6: dynein light intermediate chain (natural protein)
chain: MAPVGVEKKLLLGPNGPAVAAAGDLTSEEEEGQSLWSSILSEVSTRARSKLPSGKNILVFGEDGSGKTTLMTKLQGAEHGKKGRGLEYLYLSVHDEDRDDHTRCNVWILDGDLYHKGLLKFAVSAESLPETLVIFVADMSRPWTVMESLQKWASVLREHIDKMKIPPEKMRELERKFVKDFQDYMEPEEGCQGSPQRRGPLTSGSDEENVALPLGDNVLTHNLGIPVLVVCTKCDAVSVLEKEHDYRDEHLDFIQSHLRRFCLQYGAALIYTSVKEEKNLDLLYKYIVHKTYGFHFTTPALVVEKDAVFIPAGWDNEKKIAILHENFTTVKPEDAYEDFIVKPPVRKLVHDKELAAEDEQVFLMKQQSLLAKQPATPTRASESPARGPSGSPRTQGRGGPASVPSSSPGTSVKKPDPNIKNNAASEGVLASFFNSLLSKKTGSPGSPGAGGVQSTAKKSGQKTVLSNVQEELDRMTRKPDSMVTNSSTENEA
B7: JIP3^1–185 (domain or fragment)
chain: MMEIQMDEGGGVVVYQDDYCSGSVMSERVSGLAGSIYREFERLIHCYDEEVVKELMPLVVNVLENLDSVLSENQEHEVELELLREDNEQLLTQYEREKALRKQAEEKFIEFEDALEQEKKELQIQVEHYEFQTRQLELKAKNYADQISRLEERESEMKKEYNALHQRHTEMIQTYVEHIERSKMQ
B8: GST-CC1B (GST-Psc-DCTN1(residues 350-547)-GFP-6xHis) (domain or fragment)
chain: GSDGAASSYQLKQLEEQNARLKDALVRMRDLSSSEKQEHVKLQKLMEKKNQELEVVRQQRERLQEELSQAESTIDELKEQVDAALGAEEMVEMLTDRNLNLEEKVRELRETVGDLEAMNEMNDELQENARETELELREQLDMAGARVREAQKRVEAAQETVADYQQTIKKYRQLTAHLQDVNRELTNQQEASVERQQQ
B9: GCN4-WD40-SNAP (other)
chain: GSGSVKQLEDKVEELLSKNAHLENEVARLKKLVSGGPLGQKRDPKEWIPRPPEKYALSGHRSPVTRVIFHPVFSVMVSASEDATIKVWDYETGDFERTLKGHTDSVQDISFDHSGKLLASCSADMTIKLWDFQGFECIRTMHGHDHNVSSVAIMPNGDHIVSASRDKTIKMWEVQTGYCVKTFTGHREWVRMVRPNQDGTLIASCSNDQTVRVWVVATKECKAELREHEHVVECISWAPESSYSSISEATGSETKKSGKPGPFLLSGSRDKTIKMWDVSTGMCLMTLVGHDNWVRGVLFHSGGKFILSCADDKTLRVWDYKNKRCMKTLNAHEHFVTSLDFHKTAPYVVTGSVDQTVKVWECR
B10: MBP-DIC-N (dynein intermediate chain 1-76) (domain or fragment)
chain: MSDKSELKAELERKKQRLAQIREEKKRKEEERKKKETDQKKEAVAPVQEESDLEKKRREAEALLQSMGLTPESPIV

In series [1] the target is B8. Description: pull-down.
The series “cryo-EM structure” concerns the molecule itself. Description: cryo-EM structure.
Series [2] concerns the target T1, JIP3 RH1 domain (JIP3 1-108) (mouse, UniProt Q9ESN9-5 1-108).
T1 sequence: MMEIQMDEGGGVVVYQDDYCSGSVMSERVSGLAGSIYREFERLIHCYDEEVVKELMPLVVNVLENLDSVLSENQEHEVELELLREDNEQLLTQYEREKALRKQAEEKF
Description: pull-down.

The series “SEC-MALS” concerns the molecule itself. Nature of the series: SEC-MALS. (Size exclusion chromatography separates by hydrodynamic size, large species first.)
For series [3], the target named is T2, mouse JIP3^185–505 (JIP3 186-505) (mouse, UniProt Q9ESN9-5 186-505).
T2 sequence: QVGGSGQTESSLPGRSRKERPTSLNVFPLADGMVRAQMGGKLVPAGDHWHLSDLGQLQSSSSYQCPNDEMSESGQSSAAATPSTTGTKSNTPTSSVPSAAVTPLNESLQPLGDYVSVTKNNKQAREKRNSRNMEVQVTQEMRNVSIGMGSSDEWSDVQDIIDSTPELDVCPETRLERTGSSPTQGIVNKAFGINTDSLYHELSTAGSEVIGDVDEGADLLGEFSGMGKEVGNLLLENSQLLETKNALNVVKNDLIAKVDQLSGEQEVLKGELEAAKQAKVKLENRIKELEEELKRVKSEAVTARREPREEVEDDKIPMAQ
Description: pull-down.

The target of series [4] is T3, mouse JIP3 186-505_L383A/E386A (mouse, UniProt Q9ESN9-5 186-505, L383A | E386A).
T3 sequence: T2 sequence with L198A, E201A
Description: pull-down.

Series [5] concerns the target dynactin pointed end complex (ZZ-TEV-Arp11, p62, p25, p27) (human, UniProt Q9NZ32;Q9UJW0-1;Q9BTE1;O00399). Nature of the series: SEC.
The series “JIP3^1–560” addresses B5. Nature of the series: cryo-EM structure.
Series [6] has as its target B6. Description: cryo-EM structure.
The series “LIS1 (full length human)” concerns the target B2. Nature of the series: pull-down.
The target in series [7] is GST-CC1A/B (GST-Psc-DCTN1(residues 214-547)-GFP-6xHis) (human (by the printed UniProt entry), UniProt Q14203-1 214-547). Nature of the series: pull-down.

Residue numbers refer to the chain shown, from its start.

Sequence of dynactin pointed end complex (ZZ-TEV-Arp11, p62, p25, p27) (Q9NZ32 whole entry, chain 1 of 4): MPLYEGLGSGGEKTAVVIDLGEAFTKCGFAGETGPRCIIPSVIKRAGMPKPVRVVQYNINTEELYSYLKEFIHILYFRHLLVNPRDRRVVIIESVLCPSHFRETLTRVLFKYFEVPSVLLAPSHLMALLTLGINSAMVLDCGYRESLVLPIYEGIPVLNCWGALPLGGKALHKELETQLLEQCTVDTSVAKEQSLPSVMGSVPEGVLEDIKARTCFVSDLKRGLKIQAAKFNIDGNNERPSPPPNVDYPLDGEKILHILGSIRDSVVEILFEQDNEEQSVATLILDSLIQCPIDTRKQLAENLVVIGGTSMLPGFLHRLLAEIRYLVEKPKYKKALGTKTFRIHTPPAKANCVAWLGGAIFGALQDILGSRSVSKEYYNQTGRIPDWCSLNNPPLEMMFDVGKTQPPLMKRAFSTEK
Sequence of dynactin pointed end complex (ZZ-TEV-Arp11, p62, p25, p27) (Q9UJW0 whole entry, chain 2 of 4): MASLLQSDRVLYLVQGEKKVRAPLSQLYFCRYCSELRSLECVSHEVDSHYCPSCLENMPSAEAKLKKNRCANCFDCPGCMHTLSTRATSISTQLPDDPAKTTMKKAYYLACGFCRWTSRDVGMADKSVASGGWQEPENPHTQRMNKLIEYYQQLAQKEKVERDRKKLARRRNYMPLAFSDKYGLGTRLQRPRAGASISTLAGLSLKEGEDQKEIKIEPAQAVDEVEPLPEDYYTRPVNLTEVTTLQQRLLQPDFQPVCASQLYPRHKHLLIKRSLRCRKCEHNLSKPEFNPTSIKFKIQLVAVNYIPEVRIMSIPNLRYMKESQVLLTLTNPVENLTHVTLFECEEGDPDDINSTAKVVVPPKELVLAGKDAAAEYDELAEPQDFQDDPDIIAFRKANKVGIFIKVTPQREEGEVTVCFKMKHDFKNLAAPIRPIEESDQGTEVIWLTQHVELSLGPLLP
Sequence of dynactin pointed end complex (ZZ-TEV-Arp11, p62, p25, p27) (Q9BTE1 whole entry, chain 3 of 4): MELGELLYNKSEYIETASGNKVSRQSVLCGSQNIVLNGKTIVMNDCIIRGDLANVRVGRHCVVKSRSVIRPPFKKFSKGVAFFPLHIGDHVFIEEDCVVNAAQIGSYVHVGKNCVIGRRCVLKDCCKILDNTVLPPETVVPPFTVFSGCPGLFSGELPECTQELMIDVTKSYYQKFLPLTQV
Sequence of dynactin pointed end complex (ZZ-TEV-Arp11, p62, p25, p27) (O00399 whole entry, chain 4 of 4): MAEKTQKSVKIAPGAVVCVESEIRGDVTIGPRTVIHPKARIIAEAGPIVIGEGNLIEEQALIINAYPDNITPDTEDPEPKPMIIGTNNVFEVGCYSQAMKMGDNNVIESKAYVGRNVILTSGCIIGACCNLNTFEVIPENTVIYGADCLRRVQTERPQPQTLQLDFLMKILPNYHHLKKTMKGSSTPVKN

For B1, the binding result in [1] is recorded as “binds”. With B2, the binding result in the series “cryo-EM structure” was “binds”.

Consider SVQEKKKSTIWQFFSRLFSSSSS (domain or fragment) [GST-JIP3^563–585 (JIP3^helix construct)], for which the binding result in series [2] is “binds”. One may read the stoichiometry N as a count of units in the complex or per binding partner. Turning to B3, in the series “SEC-MALS”, the “stoichiometry N” value turned out to be 2. For the molecule B4, the binding result in series [3] and in series [4] was “binds” in each case.

As to B5, the binding result in series [5] is on record as “binds”. Regarding B6, in the series with JIP3^1–560, the binding result is given as “binds”. Take B7: in series [6], the binding result is recorded as “binds”. On to B8, for which the binding result with LIS1 (full length human) is “binds”.

Regarding B9, in “SEC-MALS”, the “stoichiometry N” value turned out to be 2. B10: the binding result in series [7] and in series [1] was “binds” each time.
